B1: Azoarcus group I ribozyme (parent)
chain: GUGCCUUGCGCCGGGAAACCACGCAAGGGAUGGUGUCAAAUUCGGCGAAACCUAAGCGCCCGCCCGGGCGUAUGGCAACGCCGAGCCAAGCUUCGGCGCCUGCGCCGAUGAAGGUGUAGAGACUAGACGGCACCCACCUAAGGCAAACGCUAUGGUGAAGGCAUAGUCCAGGGAGUGGCGAAAGUCACACAAACCGG

Variants of: B1
Assay: reverse-splicing fitness (ratio to wild type); higher = more active; in vitro selection; Mg2+ level not given
Summary of the method: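 An in vitro group I ribozyme library with randomized positions was T7-transcribed and gel-purified. In triplicate, 10 pmol RNA in EPPS pH 7.5 was reacted with 50 pmoles of a 30-nt RNA substrate for 1 h at 37 °C across several added MgCl2 levels (1–48 mM), then stopped with EDTA. Products were reverse transcribed from a substrate-complementary primer, PCR-amplified and sequenced (HiSeq 4000). Fitness is a variant's read proportion after selection over that before, normalised to wild type.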

Row | Variant | reverse-splicing fitness
1 | A111G C169U | 0.196
2 | A111G C169G | 0.117
3 | A111G C169A | 0.0602
4 | A111G A145U C150G C169U U176A | 0.00751
5 | A111G A145U C150G C169U U176C | 0.0148
6 | A111G A145U C150G C169U U176G | 0.00488
7 | A111U A120C A145C C150A U176G | 0.00877
8 | A111U A120C A145C C150A U176A | 0.0267
9 | A111U A120C A145C C150A U176C | 0.0236
10 | A111G A145G C150G C169U U176A | 0.011
11 | A111G A145G C150G C169U U176C | 0.0172
12 | A111G A145G C150G C169U U176G | 0.00609
13 | A111G C150G C169U U176C | 0.0163
14 | A111G C150G C169U U176G | 0.00532
15 | A111G C150G C169U U176A | 0.00683
16 | A111G A120U C150U C169A U176G | 0.00227
17 | A111G A120U C150U C169A U176C | 0.00257
18 | A111G A120U C150U C169A U176A | 0.00336
19 | A111G A145G C169U U176C | 0.0655
20 | A111G A145G C169U U176A | 0.0478
21 | A111G A145G C169U U176G | 0.00661

Row | Variant | reverse-splicing fitness
22 | A111G A145G C150G | 0.364
23 | A111G A145G C150U | 0.941
24 | A111G A145G C150A | 0.517
25 | A111G C150A U176C | 0.264
26 | A111G C150A U176G | 0.103
27 | A111G C150A U176A | 0.275
28 | A111G A145C C169A U176C | 0.0139
29 | A111G A145C C169A U176A | 0.0126
30 | A111G A145C C169A U176G | 0.00444
31 | A111G C150U C169U U176A | 0.0336
32 | A111G C150U C169U U176G | 0.00703
33 | A111G C150U C169U U176C | 0.0507
34 | A111G A145G U176G | 0.333
35 | A111G A145G U176C | 0.779
36 | A111G A145G U176A | 0.751
37 | A111G A145U C150G U176C | 0.226
38 | A111G A145U C150G U176G | 0.0305
39 | A111G A145U C150G U176A | 0.17
40 | A111G A145U C150A C169G | 0.016
41 | A111G A145U C150A C169U | 0.0232
42 | A111G A145U C150A C169A | 0.0105

Row | Variant | reverse-splicing fitness
43 | A111G A145C | 0.876
44 | A111G A145G | 0.9
45 | A111G A145U | 0.957
46 | A111G A145C U176G | 0.448
47 | A111G A145C U176A | 0.718
48 | A111G A145C U176C | 0.78
49 | A111G C169U U176A | 0.0489
50 | A111G C169U U176G | 0.00769
51 | A111G C169U U176C | 0.0614
52 | A111G A145U C150A C169G U176C | 0.0131
53 | A111G A145U C150A C169G U176G | 0.00512
54 | A111G A145U C150A C169G U176A | 0.014
55 | A111G A145U C150A C169U U176A | 0.0162
56 | A111G A145U C150A C169U U176G | 0.00519
57 | A111G A145U C150A C169U U176C | 0.0165
58 | A111G C150U C169U | 0.112
59 | A111G C150U C169A | 0.0299
60 | A111G C150U C169G | 0.0695
61 | A111G A145U C150U C169A U176A | 0.0142
62 | A111G A145U C150U C169A U176C | 0.0144
63 | A111G A145U C150U C169A U176G | 0.00557

Row | Variant | reverse-splicing fitness
64 | A111G A145C C150U C169G U176A | 0.0242
65 | A111G A145C C150U C169G U176C | 0.0204
66 | A111G A145C C150U C169G U176G | 0.00586
67 | A111G A145C C150U C169U U176C | 0.0247
68 | A111G A145C C150U C169U U176G | 0.0062
69 | A111G A145C C150U C169U U176A | 0.0217
70 | A111G A145U C150G C169G U176G | 0.00482
71 | A111G A145U C150G C169G U176A | 0.00712
72 | A111G A145U C150G C169G U176C | 0.00501
73 | A111G A145G C169U | 0.19
74 | A111G A145G C169G | 0.118
75 | A111G A145G C169A | 0.053
76 | A111G A120U C169G U176A | 0.0109
77 | A111G A120U C169G U176C | 0.0228
78 | A111G A120U C169G U176G | 0.00198
79 | A111G A145G C150A C169U U176C | 0.0251
80 | A111G A145G C150A C169U U176G | 0.00641
81 | A111G A145G C150A C169U U176A | 0.0202
82 | A111G A145C C169G U176C | 0.0431
83 | A111G A145C C169G U176G | 0.00491
84 | A111G A145C C169G U176A | 0.0344

— the RNAGym collection of RNA variant scans (doi:10.1093/molbev/msab373)
